This is an account of results in article PMC8295233 (Immunobiology, 2021).

Experiment [1] has as its target ERAP1_R (Homo sapiens, UniProt Q9NZ08). As to the kind of experiment: SPR binding analysis of peptide analytes to immobilized ERAP1_R. The following applies: pH 6.2, read-out: ka. A general note: SPR reads the build-up and loss of mass on a sensor chip optically.
The target in experiment [2] is ERAP1 regulatory domain, the domain part of the SPF and LPF fused constructs (human, UniProt Q9NZ08 529-941). Nature of the experiment: crystal structure.
For experiment [3], the target named is ERAP1 regulatory domain with a C-terminal His6-tag (human, UniProt Q9NZ08 529-941). As to the kind of experiment: SPR.

No end group written: not given here.

As to “LVAFKARKF [Free Peptide (LVAFKARKF), LVAFKARKF]”, the kon in experiment [1] amounted to 734 M⁻¹ s⁻¹.

As to AAAAFKARKF [LPF peptide (long peptide with Phe anchor), the peptide part of the LPF fused construct], the binding result in experiment [2] is recorded as “binds”.

B1: SPF single-chain fused construct (ERAP1_R with FKARKF fused to its C-terminal end), His6-tag removed (domain or fragment, human)
chain: GFPLITITVRGRNVHMKQEHYMKGSDGAPDTGYLWHVPLTFITSKSDMVHRFLLKTKTDVLILPEEVEWIKFNVGMNGYYIVHYEDDGWDSLTGLLKGTHTAVSSNDRASLINNAFQLVSIGKLSIEKALDLSLYLKHETEIMPVFQGLNELIPMYKLMEKRDMNEVETQFKAFLIRLLRDLIDKQTWTDEGSVSERMLRSQLLLLACVHNYQPCVQRAEGYFRKWKESNGNLSLPVDVTLAVFAVGAQSTEGWDFLYSKYQFSLSSTEKSQIEFALCRTQNKEKLQWLLDESFKGDKIKTQEFPQILTLIGRNPVGYPLAWQFLRKNWNKLVQKFELGSSSIAHMVMGTTNQFSTRTRLEEVKGFFSSLKENGSQLRCVQQTIETIEENIGWMDKNFDKIRVWLQSEKLERMFKARKF
In experiment [3], B1 showed a Kd of 32 µM, an off-rate (koff) of 0.112 s⁻¹ and a kon of 3500 M⁻¹ s⁻¹.

B2: LPF single-chain fused construct (ERAP1_R with AAAAFKARKF fused to its C-terminal end), His6-tag removed (domain or fragment, human)
chain: GFPLITITVRGRNVHMKQEHYMKGSDGAPDTGYLWHVPLTFITSKSDMVHRFLLKTKTDVLILPEEVEWIKFNVGMNGYYIVHYEDDGWDSLTGLLKGTHTAVSSNDRASLINNAFQLVSIGKLSIEKALDLSLYLKHETEIMPVFQGLNELIPMYKLMEKRDMNEVETQFKAFLIRLLRDLIDKQTWTDEGSVSERMLRSQLLLLACVHNYQPCVQRAEGYFRKWKESNGNLSLPVDVTLAVFAVGAQSTEGWDFLYSKYQFSLSSTEKSQIEFALCRTQNKEKLQWLLDESFKGDKIKTQEFPQILTLIGRNPVGYPLAWQFLRKNWNKLVQKFELGSSSIAHMVMGTTNQFSTRTRLEEVKGFFSSLKENGSQLRCVQQTIETIEENIGWMDKNFDKIRVWLQSEKLERMAAAAFKARKF
In experiment [3], B2 displayed a Kd of 21.3 µM, a koff of 0.091 s⁻¹ and a kon of 4270 M⁻¹ s⁻¹.

For the molecule FKARKF [SPF peptide (short peptide with Phe anchor), the peptide part of the SPF fused construct], in experiment [2], the binding result is reported as “binds”.

With LVAFKARKF [free peptide LVAFKARKF (optimized ERAP1 substrate)], in experiment [3], the Kd stood at 19.8 µM and the koff amounted to 0.0145 s⁻¹.

In general, Kd refers to a measure of binding affinity in units of concentration. By koff is commonly meant the rate constant with which the complex falls apart. A high value points to fast dissociation.
